Columns and labels:
[1] = target: Biotinylated murine soluble TWEAK (amino acids 81-225 of SEQ ID NO: 69) (murine) (UniProt O54907); experiment: SPR (Biacore), further experiment, biotinylated soluble TWEAK on streptavidin chip, 25 C
[2] = target: Biotinylated murine soluble TWEAK (amino acids 81-225 of SEQ ID NO: 69) (murine) (UniProt O54907); experiment: SPR (Biacore 2000), biotinylated soluble TWEAK on streptavidin chip, antibody 100 nM as analyte, 25 C
[3] = target: Biotinylated murine soluble TWEAK (amino acids 81-225 of SEQ ID NO: 69) (murine) (UniProt O54907); experiment: SPR (Biacore), biotinylated soluble TWEAK on streptavidin chip, 25 C
[4] = target: Biotinylated murine soluble TWEAK (amino acids 81-225 of SEQ ID NO: 69) (murine) (UniProt O54907); experiment: SPR (Biacore), biotinylated soluble TWEAK on streptavidin chip, 37 C

B1: <TWEAK> 305chi (antibody, human IgG1, kappa, V domains shown)
VH: QEQLVESGGGLVQPGGSLTLSCKASGFDFSTYYMSWVRQAPGKGLEWIGTVYVRQGTTYYASWLNGRFTISSDNAQNTVDLKMNSLTAADTATYFCAKGGYNYDDAFVIWGPGTLVTVSF
VL: AIEMTQTPFSVSAAVGGTVTINCQASQNIYSNLAWYQQKPGQPPKLLMYTASYLASGVPSRFKGSGSRTEYTLTISGVQCADAATYYCQTAYYNSRPDTVAFGGGTEVVVKR
For B1, the t/2 diss [min] 25° C. [1] was 41 min and the t/2 diss [min] 25° C. [2] was 39 min.

B2: Humanized <TWEAK> 305- antibody 27 (antibody, V domains shown)
VH: QVQLVQSGAEVKKPGSSVKVSCKASGFDFSTYYMSWVRQAPGQGLEWMGTVYVRQGTTYYASWLNGRVTITADESTSTAYMELSSLRSEDTAVYYCARGGYNYDDAFVIWGQGTLVTVSS
VL: DIQMTQSPSSVSASVGDRVTITCQASQNIYSNLAWYQQKPGKAPKLLIYTASYLASGVPSRFSGSGSGTDYTLTISSLQPEDFATYYCQTAYYNSRPDTVAFGGGTKVEIK
Binder B2 has a Biacore t/2 diss. [min] 25° C. murine [3] of 19 min and a Biacore t/2 diss. [min] 37° C. murine [4] of 19 min.

B3: Humanized <TWEAK> 305- antibody 33 (antibody, V domains shown)
VH: QVQLVQSGAEVKKPGSSVKVSCKASGFDFSTYYMSWVRQAPGQGLEWMGTVYVRQGTTYYASWLNGRVTITADESTSTAYMELSSLRSEDTAVYYCARGGYNYDDAFVIWGQGTLVTVSS
VL: AIRMTQSPSSFSASTGDRVTITCQASQNIYSNLAWYQQKPGKAPKLLIYTASYLASGVPSRFSGSGSGTDYTLTISCLQSEDFATYYCQTAYYNSRPDTVAFGGGTKVEIK
B3 was tested, and the Biacore t/2 diss. [min] 25° C. murine [3] was 19 min and the Biacore t/2 diss. [min] 37° C. murine [4] was 15 min.

B4: Humanized <TWEAK> 305- antibody 28 (antibody, V domains shown)
VH: EVQLLESGGGLVQPGGSLTLSCAASGFDFSTYYMSWVRQAPGKGLEWVSTVYVRQGTTYYASWLNGRFTISRDNSKNTLYLQMNSLRAEDTAVYYCAKGGYNYDDAFVIWGQGTLVTVSS
VL: DIQMTQSPSSVSASVGDRVTITCQASQNIYSNLAWYQQKPGKAPKLLIYTASYLASGVPSRFSGSGSGTDYTLTISSLQPEDFATYYCQTAYYNSRPDTVAFGGGTKVEIK
Work on B4 yielded a Biacore t/2 diss. [min] 25° C. murine [3] of 19 min and a Biacore t/2 diss. [min] 37° C. murine [4] of 17 min.

B5: Humanized <TWEAK> 305- antibody 29 (antibody, V domains shown)
VH: EVQLLESGGGLVQPGGSLRLSCAASGFDFSTYYMSWVRQAPGKGLEWVSTVYVRQGTTYYASWLNGRFTISRDNSKNTLDLQMNSLRAEDTAVYYCAKGGYNYDDAFVIWGQGTLVTVSS
VL: DIQMTQSPSSVSASVGDRVTITCQASQNIYSNLAWYQQKPGKAPKLLIYTASYLASGVPSRFSGSGSGTDYTLTISSLQPEDFATYYCQTAYYNSRPDTVAFGGGTKVEIK
B5 was tested, and the Biacore t/2 diss. [min] 25° C. murine [3] was 22 min and the Biacore t/2 diss. [min] 37° C. murine [4] was 21 min.

B6: Humanized <TWEAK> 305- antibody 34 (antibody, V domains shown)
VH: EVQLLESGGGLVQPGGSLRLSCAASGFDFSTYYMSWVRQAPGKGLEWVSTVYVRQGTTYYASWLNGRFTISRDNSKNTLYLQMNSLRAEDTAVYYCAKGGYNYDDAFVIWGQGTLVTVSS
VL: AIRMTQSPSSFSASTGDRVTITCQASQNIYSNLAWYQQKPGKAPKLLIYTASYLASGVPSRFSGSGSGTDYTLTISCLQSEDFATYYCQTAYYNSRPDTVAFGGGTKVEIK
B6 showed a Biacore t/2 diss. [min] 25° C. murine [3] of 22 min and a Biacore t/2 diss. [min] 37° C. murine [4] of 20 min.

B7: Humanized <TWEAK> 305- antibody 32 (antibody, V domains shown)
VH: EVQLLESGGGLVQPGGSLRLSCAASGFDFSTYYMSWVRQAPGKGLEWVSTVYVRQGTTYYASWLNGRFTISRDNSKNTLDLQMNSLRAEDTAVYYCAKGGYNYDDAFVIWGQGTLVTVSS
VL: DIQMTQSPSTLSASVGDRVTITCQASQNIYSNLAWYQQKPGKAPKLLIYTASYLASGVPSRFSGSGSGTEFTLTISSLQPDDFATYYCQTAYYNSRPDTVAFGGGTKVEIK
Work on B7 yielded a Biacore t/2 diss. [min] 25° C. murine [3] of 17 min and a Biacore t/2 diss. [min] 37° C. murine [4] of 20 min.

B8: Humanized <TWEAK> 305- antibody 31 (antibody, V domains shown)
VH: EVQLLESGGGLVQPGGSLTLSCAASGFDFSTYYMSWVRQAPGKGLEWVSTVYVRQGTTYYASWLNGRFTISRDNSKNTLYLQMNSLRAEDTAVYYCAKGGYNYDDAFVIWGQGTLVTVSS
VL: AIRMTQSPSSFSASTGDRVTITCQASQNIYSNLAWYQQKPGKAPKLLIYTASYLASGVPSRFSGSGSGTDYTLTISCLQSEDFATYYCQTAYYNSRPDTVAFGGGTKVEIK
B8 gave a Biacore t/2 diss. [min] 25° C. murine [3] of 19 min and a Biacore t/2 diss. [min] 37° C. murine [4] of 19 min.

B9: Humanized <TWEAK> 305- antibody 30 (antibody, V domains shown)
VH: EVQLLESGGGLVQPGGSLRLSCAASGFDFSTYYMSWVRQAPGKGLEWVSTVYVRQGTTYYASWLNGRFTISRDNSKNTLYLQMNSLTAEDTAVYYCAKGGYNYDDAFVIWGQGTLVTVSS
VL: DIQMTQSPSSVSASVGDRVTITCQASQNIYSNLAWYQQKPGKAPKLLIYTASYLASGVPSRFSGSGSGTDFTLTISSLQPEDFATYYCQTAYYNSRPDTVAFGGGTKVEIK
B9 gave a Biacore t/2 diss. [min] 25° C. murine [3] of 17 min and a Biacore t/2 diss. [min] 37° C. murine [4] of 15 min.
